Measurements: paper PMC10397247

Columns and labels:
Experiment in all cases: two-hybrid library CCmax;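 further: natural log of median RNA to DNA barcode read ratio; higher means stronger binding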
4H478-AA = target: T1, 4H478-AA; details: mean of both orientations
T1 chain: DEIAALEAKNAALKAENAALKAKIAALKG

4H3709-AA = target: T2, 4H3709-AA; details: mean of both orientations
T2 chain: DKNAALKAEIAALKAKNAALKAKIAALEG

4H2283-AA = target: T3, 4H2283-AA; details: mean of both orientations
T3 chain: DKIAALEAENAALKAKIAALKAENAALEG

4H656-AA = target: T4, 4H656-AA
T4 chain: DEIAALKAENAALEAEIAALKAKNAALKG

4H497-AA = target: T5, 4H497-AA; details: mean of both orientations
T5 chain: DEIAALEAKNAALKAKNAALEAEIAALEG

4H3029-AA = target: T6, 4H3029-AA; details: mean of both orientations
T6 chain: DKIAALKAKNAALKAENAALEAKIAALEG

4H3628-AA = target: T7, 4H3628-AA; details: mean of both orientations
T7 chain: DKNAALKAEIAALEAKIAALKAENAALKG

4H1064-AA = target: T8, 4H1064-AA; details: mean of both orientations
T8 chain: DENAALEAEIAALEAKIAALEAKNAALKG

4H675-AA = target: T9, 4H675-AA; details: mean of both orientations
T9 chain: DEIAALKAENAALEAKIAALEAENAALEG

4H3121-AA = target: T10, 4H3121-AA; details: mean of both orientations
T10 chain: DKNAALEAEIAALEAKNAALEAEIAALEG

4H2580-AA = target: T11, 4H2580-AA
T11 chain: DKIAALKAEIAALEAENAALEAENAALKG

4H2742-AA = target: T12, 4H2742-AA; details: mean of both orientations
T12 chain: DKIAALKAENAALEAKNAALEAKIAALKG

4H3591-AA = target: T13, 4H3591-AA; details: mean of both orientations
T13 chain: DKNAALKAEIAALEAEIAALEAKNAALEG

4H189-AA = target: T14, 4H189-AA; details: mean of both orientations
T14 chain: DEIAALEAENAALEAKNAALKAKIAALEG

4H391-AA = target: T15, 4H391-AA; details: mean of both orientations
T15 chain: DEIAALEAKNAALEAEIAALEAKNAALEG

4H3417-AA = target: T16, 4H3417-AA; details: mean of both orientations
T16 chain: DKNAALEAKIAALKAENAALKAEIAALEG

4H2713-AA = target: T17, 4H2713-AA; details: mean of both orientations
T17 chain: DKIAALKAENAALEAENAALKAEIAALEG

4H1391-AA = target: T18, 4H1391-AA; details: mean of both orientations
T18 chain: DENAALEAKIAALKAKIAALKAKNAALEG

4H2991-AA = target: T19, 4H2991-AA; details: mean of both orientations
T19 chain: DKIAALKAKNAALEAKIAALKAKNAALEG

4H2248-AA = target: T20, 4H2248-AA
T20 chain: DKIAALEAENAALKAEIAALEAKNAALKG

4H1348-AA = target: T21, 4H1348-AA; details: mean of both orientations
T21 chain: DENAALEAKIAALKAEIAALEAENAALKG

4H3066-AA = target: T22, 4H3066-AA; details: mean of both orientations
T22 chain: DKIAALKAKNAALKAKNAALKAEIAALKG

4H3666-AA = target: T23, 4H3666-AA; details: mean of both orientations
T23 chain: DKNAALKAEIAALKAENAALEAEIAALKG

4H1809-AA = target: T24, 4H1809-AA; details: mean of both orientations
T24 chain: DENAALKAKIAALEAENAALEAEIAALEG

4H1000-AA = target: T25, 4H1000-AA
T25 chain: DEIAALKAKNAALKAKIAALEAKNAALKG

4H1854-AA = target: T26, 4H1854-AA; details: mean of both orientations
T26 chain: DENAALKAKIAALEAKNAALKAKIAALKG

4H1146-AA = target: T27, 4H1146-AA; details: mean of both orientations
T27 chain: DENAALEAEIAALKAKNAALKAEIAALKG

4H1035-AA = target: T28, 4H1035-AA; details: mean of both orientations
T28 chain: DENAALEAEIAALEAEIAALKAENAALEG

4H3920-AA = target: T29, 4H3920-AA; details: mean of both orientations
T29 chain: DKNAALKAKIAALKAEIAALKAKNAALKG

4H971-AA = target: T30, 4H971-AA; details: mean of both orientations
T30 chain: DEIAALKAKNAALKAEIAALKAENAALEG

4H1109-AA = target: T31, 4H1109-AA; details: mean of both orientations
T31 chain: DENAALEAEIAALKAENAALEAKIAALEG

4H428-AA = target: T32, 4H428-AA; details: mean of both orientations
T32 chain: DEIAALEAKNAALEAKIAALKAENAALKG

4H3446-AA = target: T33, 4H3446-AA; details: mean of both orientations
T33 chain: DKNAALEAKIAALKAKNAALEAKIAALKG

4H2948-AA = target: T34, 4H2948-AA; details: mean of both orientations
T34 chain: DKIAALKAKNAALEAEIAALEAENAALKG

4H146-AA = target: T35, 4H146-AA; details: mean of both orientations
T35 chain: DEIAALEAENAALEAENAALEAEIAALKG

4H3939-AA = target: T36, 4H3939-AA; details: mean of both orientations
T36 chain: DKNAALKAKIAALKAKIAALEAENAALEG

4H3102-AA = target: T37, 4H3102-AA; details: mean of both orientations
T37 chain: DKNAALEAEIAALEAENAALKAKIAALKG

interaction score (4H478-AA): -2.48
interaction score (4H3709-AA): -1.07
interaction score (4H2283-AA): 0.468
interaction score (4H656-AA): 0.604
interaction score (4H497-AA): -1.74
interaction score (4H3029-AA): -0.99
interaction score (4H3628-AA): -1.21
interaction score (4H1064-AA): -0.567
interaction score (4H675-AA): 2.34
interaction score (4H3121-AA): -0.524
interaction score (4H2580-AA): -1.04
interaction score (4H2742-AA): -1.09
interaction score (4H3591-AA): -0.703
interaction score (4H189-AA): -0.933
interaction score (4H391-AA): 0.223
interaction score (4H3417-AA): -0.644
interaction score (4H2713-AA): -1.49
interaction score (4H1391-AA): -1.56
interaction score (4H2991-AA): -1.19
interaction score (4H2248-AA): -1.32
interaction score (4H1348-AA): -1.24
interaction score (4H3066-AA): -1.96
interaction score (4H3666-AA): 0.777
interaction score (4H1809-AA): 0.471
interaction score (4H1000-AA): -0.42
interaction score (4H1854-AA): -1.79
interaction score (4H1146-AA): -1.52
interaction score (4H1035-AA): -1.26
interaction score (4H3920-AA): -1.89
interaction score (4H971-AA): -0.95
interaction score (4H1109-AA): 1.3
interaction score (4H428-AA): -0.137
interaction score (4H3446-AA): -1.24
interaction score (4H2948-AA): 0.224
interaction score (4H146-AA): -0.33
interaction score (4H3939-AA): -1.65
interaction score (4H3102-AA): -0.226
Binder: DEIAALKAKNAALKAKIAALEAKNAALKG [4H1000-AA]
